Stoichiometry N data for one substance are collected here from publication PMC10094569.

For the assay, the target named is human IgG1 Fc, from HEK-293T cells (human). The experiment in a line: SEC; each protein alone on Superdex 200 in PBS; molecular weights from the filtration patterns.

Regarding “human IgG1 Fc, from HEK-293T cells (domain or fragment)”, the stoichiometry N (in general, a count of units in the complex or per binding partner) was 2.
